Experimental data as given in US4285932A, “Enzyme derivatives for use in the treatment of venous thrombosis” (Beecham Group Limited, priority 1978, dated 1981).

Key:
[1] = test system: streptokinase-human plasminogen activator complex; assay: Residual enzyme activity of acylated streptokinase-human plasminogen activator complex; type: biochemical; conditions: freeze-dried powder
Method: The time for which the reaction is allowed to proceed depends upon the blocking reagent employed, the temperature at which the reaction is carried out and the enzyme selected for blocking. The optimum time period for any particular circumstances may be selected by following the decrease in enzymic activity by incubating aliquots with a chromogenic or fluorogenic substrate.

[2] = test system: radio-labelled clot in the inferior vena cava; assay: In vivo fibrinolytic enzyme test: radio-labelled clot in the inferior vena cava of the rabbit; set-up: species or system New Zealand white rabbit; conditions: systemic infusion, blood radioactivity at least twice background within six hours without death
Source text: The agent under test is introduced into the bloodstream at a point where it must pass through the heart to ensure that the agent will be thoroughly mixed with venous blood. Non-specific lytic enzymes attack blood proteins and cause death before any lysis of the clot is observed. Enzymes which have a degree of specificity for fibrin lyse the clot at a dose lower than the lethal dose.
A New Zealand white rabbit (2.5-3.5 kg) is anaesthetised and three cannulas are inserted into the anterior facial vein (referred to as cannula 1 in this description), the left carotid artery (referred to as cannula 2) and the left external iliac vein (referred to as cannula 3). […] The quantity of 50 μl is determined arbitrarily, and represents an amount between the minimum quantity which can be measured accurately and the maximum quantity which can be injected without excessive disturbance of physiological conditions within the isolated vein portion. […] The first swab is transferred to a counting vial, and the level of γ -radiation is measured. […]
Constriction is required in order to prevent dislodgement of the clot. […] A second blood sample (P10) is withdrawn into citrate buffer as above and counted as previously described ten minutes after Po This count is made to check that no additional radio-activity has been washed into the bloodstream, thereby giving an indication of the stability of the clot. […]

Molecule	remaining share of the original enzyme activity [1]	dose giving a positive result in the in vivo fibrinolytic test [2]
p-Anisoyl Streptokinase-Human Plasminogen Activator Complex [Example 26]	less than 5%	–
human plasmin: free proteolytic enzyme, in vivo fibrinolytic enzyme (protein, UniProt P00747 20-580; P00747 581-810, looked up, Plasmin) Plasmin heavy chain A: EPLDDYVNTQGASLFSVTKKQLGAGSIEECAAKCEEDEEFTCRAFQYHSKEQQCVIMAENRKSSIIIRMRDVVLFEKKVYLSECKTGNGKNYRGTMSKTKNGITCQKWSSTSPHRPRFSPATHPSEGLEENYCRNPDNDPQGPWCYTTDPEKRYDYCDILECEEECMHCSGENYDGKISKTMSGLECQAWDSQSPHAHGYIPSKFPNKNLKKNYCRNPDRELRPWCFTTDPNKRWELCDIPRCTTPPPSSGPTYQCLKGTGENYRGNVAVTVSGHTCQHWSAQTPHTHNRTPENFPCKNLDENYCRNPDGKRAPWCHTTNSQVRWEYCKIPSCDSSPVSTEQLAPTAPPELTPVVQDCYHGDGQSYRGTSSTTTTGKKCQSWSSMTPHRHQKTPENYPNAGLTMNYCRNPDADKGPWCFTTDPSVRWEYCNLKKCSGTEASVVAPPPVVLLPDVETPSEEDCMFGNGKGYRGKRATTVTGTPCQDWAAQEPHRHSIFTPETNPRAGLEKNYCRNPDGDVGGPWCYTTNPRKLYDYCDVPQCAAPSFDCGKPQVEPKKCPGR Plasmin light chain B: VVGGCVAHPHSWPWQVSLRTRFGMHFCGGTLISPEWVLTAAHCLEKSPRPSSYKVILGAHQEVNLEPHVQEIEVSRLFLEPTRKDIALLKLSSPAVITDKVIPACLPSPNYVVADRTECFITGWGETQGTFGAGLLKEAQLPVIENKVCNRYEFLNGRVQSTELCAGHLAGGTDSCQGDSGGPLVCFEKDKYILQGVTSWGLGCARPNKPGVYVRVSRFVTWIEGVMRNN	–	1×10^-7 to 5×10^-6 mol of active catalytic sites per kg of test animal
